We go through two molecules from patent US20090196880A1 (VASGENE THERAPEUTICS, published 2009).

In the assay the target is T1, EphB4 in whole cell lysate of 293 cells stably transfected with EphB4 (human, UniProt P54760 16-987).
T1 construct: Denatured protein from the lysate of transfected 293 cells (Western blot)
T1 sequence: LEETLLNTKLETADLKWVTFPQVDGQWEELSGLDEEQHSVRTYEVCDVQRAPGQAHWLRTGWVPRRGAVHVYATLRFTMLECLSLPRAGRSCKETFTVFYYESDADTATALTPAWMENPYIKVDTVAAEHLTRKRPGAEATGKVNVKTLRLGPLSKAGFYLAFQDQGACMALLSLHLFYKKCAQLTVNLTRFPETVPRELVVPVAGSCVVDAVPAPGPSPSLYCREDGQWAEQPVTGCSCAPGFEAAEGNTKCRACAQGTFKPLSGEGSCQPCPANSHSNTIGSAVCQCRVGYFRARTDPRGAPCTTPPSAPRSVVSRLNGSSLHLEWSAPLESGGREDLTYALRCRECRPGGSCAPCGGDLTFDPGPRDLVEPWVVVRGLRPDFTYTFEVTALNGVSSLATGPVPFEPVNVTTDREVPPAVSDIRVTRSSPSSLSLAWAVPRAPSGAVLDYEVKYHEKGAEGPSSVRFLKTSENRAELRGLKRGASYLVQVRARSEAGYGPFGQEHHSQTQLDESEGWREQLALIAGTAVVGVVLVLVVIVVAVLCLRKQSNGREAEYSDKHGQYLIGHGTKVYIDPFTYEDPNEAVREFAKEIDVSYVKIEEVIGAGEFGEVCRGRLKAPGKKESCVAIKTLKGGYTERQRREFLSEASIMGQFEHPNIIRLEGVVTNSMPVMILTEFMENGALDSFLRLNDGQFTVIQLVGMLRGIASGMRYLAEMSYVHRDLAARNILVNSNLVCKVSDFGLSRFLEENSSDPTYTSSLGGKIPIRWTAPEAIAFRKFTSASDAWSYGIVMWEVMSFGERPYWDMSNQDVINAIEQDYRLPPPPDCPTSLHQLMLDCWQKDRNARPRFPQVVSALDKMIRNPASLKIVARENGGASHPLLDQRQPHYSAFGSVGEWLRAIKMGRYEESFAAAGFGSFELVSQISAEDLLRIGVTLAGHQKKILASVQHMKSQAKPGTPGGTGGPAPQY
Put plainly: Western blot on lysate of EphB4-transfected 293 cells. For orientation: A western blot detects proteins with antibodies after separation by electrophoresis.

B1: mouse monoclonal antibody #131 (antibody, V domains shown)
VH: QVQLKQSGAELVKPGASVKISCKASGYTFTDYYINWVKQRPGQGLEWIGKIGPRIGTNYYNENFKGKATLTADISSNTAYMQLHTLTSEDSAVYFCARSEDYSGYVSYALDYWGQGTSVTVSS
VL: NIVMTQSPKSMSMSVGERVTLSCKASENVDTYVSWYQQKPDQSPELLIYGASNRYTGVPDRFTGSGSATDFTLTISSVQAEDLADYHCGQTYRYPFTFGGGTKLEIK
notes: also called m131
As to B1, the binding result is on record as “binds”.

B2: mouse monoclonal antibody #47 (antibody, V domains shown)
VH: EVQLQQSGPELVKPGASVKISCKASGYTFTDYYMNWVKQSHGKGLEWIGDNNPNNGGTTYNQKFKGKATLTVDKSSSTAYMELRSLTSEDSAVYYCARGKYYGTSYGWYFDVWGTGTTVTVSS
VL: DIQMTQSPASLSASVGETVTITCRISDNIDSYLAWFQQKQGKSPQLLVYDATVLADGVPSRFSGSGSGTQYSLKINSLQSEDAARYYCQVYYSIPWTFGGGTKLEIK
notes: also called m47; Mu #47
B2: the binding result is listed as “binds”.
